The values that follow come from patent publication US20240093159A1 (UNIVERSITY OF DUNDEE, published 2024).

Test [1] has as its target T1, commercially sourced Im7 linked to Sepharose (UniProt Q03708 1-87, linked to Sepharose resin).
T1 construct: also called Im7-Sepharose; Im7-agarose
T1 sequence: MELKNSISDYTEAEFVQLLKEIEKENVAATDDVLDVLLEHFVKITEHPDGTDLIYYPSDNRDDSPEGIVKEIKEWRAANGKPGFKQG
The test is described as follows: E. coli cytosol incubated with Im7-Sepharose, extensive washing, TEV release, SDS-PAGE.

Test [2] has as its target T2, Human IL17RA protein (SinoBiological) (human, UniProt Q96F46 33-320).
T2 construct: Coated on ELISA plates at 0.25 ug/well; also called IL17RA receptor
T2 sequence (looked up): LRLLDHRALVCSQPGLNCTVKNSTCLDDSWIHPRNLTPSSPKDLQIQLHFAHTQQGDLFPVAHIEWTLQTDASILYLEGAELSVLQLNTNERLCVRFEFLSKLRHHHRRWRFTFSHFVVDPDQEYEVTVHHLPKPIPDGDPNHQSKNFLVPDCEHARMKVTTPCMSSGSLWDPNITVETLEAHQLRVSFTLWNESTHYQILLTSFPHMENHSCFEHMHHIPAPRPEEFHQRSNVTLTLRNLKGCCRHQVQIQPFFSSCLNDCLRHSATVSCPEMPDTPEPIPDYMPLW
As to the kind of experiment: receptor binding ELISA, IL17RA coated at 0.25 ug/well. (An ELISA detects its analyte on a solid surface through an enzyme-linked reagent.)

B1: ColE7-IL33 fusion (Colicin E7 catalytic domain, linker, TEV site, murine IL-33 C-terminal fragment) (other)
chain: ESKRNKPGKATGKGKPVNNKWLNNAGKDLGSPVPDRIANKLRDKEFKSFDDFRKKFWEEVSKDPELSKQFSRNNNDRMKVGKAPKTRTQDVSGKATSFALHHEKPISQNGGVYDMDNISVVTPKRAIDIHRGKSGGGSSGSGENLYFQGSSIQGTSLLTQSPASLSTYNDQSVSFVLENGCYVINVDKSGKDQEQDQVLLRYYKSPCPASQSGDGVDGKKLMVNMSPIKDTDIWLHANDKDYSVELQRGDVSPPEQAFFVLHKKSSDFVSFECKNLPGTYIGVKDNQLALVEEKDESCNNIMFKLSKI
notes: also called ColE7-1L33; ColicinE7-IL33
As for B1, the binding result in test [1] is recorded as “binds”.

B2: IL33 purified on Im7-Sepharose and released from ColE7 by TEV protease (ligand)
chain: GSSIQGTSLLTQSPASLSTYNDQSVSFVLENGCYVINVDKSGKDQEQDQVLLRYYKSPCPASQSGDGVDGKKLMVNMSPIKDTDIWLHANDKDYSVELQRGDVSPPEQAFFVLHKKSSDFVSFECKNLPGTYIGVKDNQLALVEEKDESCNNIMFKLSKI
B2: the binding result in test [2] is recorded as “no binding”.
